Paper PMC10397247

T1: O9
T1 chain: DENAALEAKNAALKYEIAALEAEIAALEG

T2: 4H3855-bN
T2 chain: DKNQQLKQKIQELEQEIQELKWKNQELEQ

T3: 4H3843-bN
T3 chain: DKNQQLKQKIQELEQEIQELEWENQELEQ

T4: 4H883-bN
T4 chain: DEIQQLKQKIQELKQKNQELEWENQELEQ

T5: 4H607-bN
T5 chain: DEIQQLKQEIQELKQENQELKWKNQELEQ

T6: 4H568-bN
T6 chain: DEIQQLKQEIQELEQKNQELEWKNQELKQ

T7: 4H4001-bN
T7 chain: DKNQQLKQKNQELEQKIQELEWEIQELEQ

T8: 4H3782-bN
T8 chain: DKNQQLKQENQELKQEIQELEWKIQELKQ

T9: 4H908-bN
T9 chain: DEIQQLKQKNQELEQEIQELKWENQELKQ

T10: 4H72-bN
T10 chain: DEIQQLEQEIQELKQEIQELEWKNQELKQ

T11: 4H797-bN
T11 chain: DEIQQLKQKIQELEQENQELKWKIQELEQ

T12: 4H687-bN
T12 chain: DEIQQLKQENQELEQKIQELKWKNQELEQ

T13: 4H953-bN
T13 chain: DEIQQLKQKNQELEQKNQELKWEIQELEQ

T14: 4H462-bN
T14 chain: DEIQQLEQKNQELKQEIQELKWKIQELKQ

T15: 4H967-bN
T15 chain: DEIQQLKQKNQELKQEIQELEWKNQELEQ

T16: 4H717-bN
T16 chain: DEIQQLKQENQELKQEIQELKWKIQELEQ

T17: 4H754-bN
T17 chain: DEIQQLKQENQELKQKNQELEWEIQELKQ

T18: 4H454-bN
T18 chain: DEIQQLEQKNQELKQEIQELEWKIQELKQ

T19: 4H918-bN
T19 chain: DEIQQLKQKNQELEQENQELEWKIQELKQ


What was measured:
Test in all cases: two-hybrid library CCNG1;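 further: natural log of median RNA to DNA barcode read ratio; higher means stronger binding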
O9 = molecular target: T1, O9
4H3855-bN = molecular target: T2, 4H3855-bN
4H3843-bN = molecular target: T3, 4H3843-bN
4H883-bN = molecular target: T4, 4H883-bN
4H607-bN = molecular target: T5, 4H607-bN
4H568-bN = molecular target: T6, 4H568-bN
4H4001-bN = molecular target: T7, 4H4001-bN
4H3782-bN = molecular target: T8, 4H3782-bN
4H908-bN = molecular target: T9, 4H908-bN
4H72-bN = molecular target: T10, 4H72-bN
4H797-bN = molecular target: T11, 4H797-bN
4H687-bN = molecular target: T12, 4H687-bN
4H953-bN = molecular target: T13, 4H953-bN
4H462-bN = molecular target: T14, 4H462-bN
4H967-bN = molecular target: T15, 4H967-bN
4H717-bN = molecular target: T16, 4H717-bN
4H754-bN = molecular target: T17, 4H754-bN
4H454-bN = molecular target: T18, 4H454-bN
4H918-bN = molecular target: T19, 4H918-bN

| interaction score (O9) | interaction score (4H3855-bN) | interaction score (4H3843-bN) | interaction score (4H883-bN) | interaction score (4H607-bN) | interaction score (4H568-bN) | interaction score (4H4001-bN) | interaction score (4H3782-bN) | interaction score (4H908-bN) | interaction score (4H72-bN) | interaction score (4H797-bN) | interaction score (4H687-bN) | interaction score (4H953-bN) | interaction score (4H462-bN) | interaction score (4H967-bN) | interaction score (4H717-bN) | interaction score (4H754-bN) | interaction score (4H454-bN) | interaction score (4H918-bN) | Binder |
| --- | --- | --- | --- | --- | --- | --- | --- | --- | --- | --- | --- | --- | --- | --- | --- | --- | --- | --- | --- |
| -2.24 | – | – | – | – | – | – | – | – | – | – | – | – | – | – | – | – | – | – | DENAALEAKNAALKYEIAALEAEIAALEG [O9] |
| – | -1.08 | 0.479 | -1.27 | -0.461 | -0.456 | 0.0598 | -1.91 | 0.273 | -0.393 | 0.0484 | 0.28 | -0.576 | 0.194 | -0.314 | -0.43 | 0.109 | -0.771 | -0.56 | DKNQQLKQENQELKQEIQELEWKIQELKQ [4H3782-bN] |
| – | – | -1.58 | -0.63 | -1.31 | -0.869 | -1.28 | – | – | -1.71 | -0.609 | -1.56 | -2.09 | -0.816 | -1.23 | – | – | – | -1.05 | DKNQQLKQKIQELEQEIQELEWENQELEQ [4H3843-bN] |
